Experimental data: patent US20130116195A1, “Binding ligand linked drug delivery conjugates of tubulysins” (priority 2009, published 2013)
Entries after “also recorded” stand apart in the source; their conditions may differ.

Key:
[1] = Serum binding (30K NMWL filtration/HPLC-UV), human serum; format: in vitro ADME; settings: for fraction unbound: human, 50 μM test article concentration in serum, n = 3, read-out: Human Serum % Bound (converted)
Experimental: (§1) METHOD: Serum binding against different species. Compounds are tested with 30K NMWL, subjected to Microcon filtration (10,000 g for 30 minutes), and compounds are detected by HPLC. […] There was two times the amount of free EC0531 in serum compared to EC0305.

[2] = Serum binding (30K NMWL filtration/HPLC-UV), mouse serum; format: in vitro ADME; settings: 50 μM test article concentration in serum, n = 3, read-out: Mouse Serum % Bound (converted)
Experimental: as §1

[3] = Toxicity as measured by weight loss; format: in vivo, mice; settings: for tolerability (percent weight change): FIG. 6, 3 μmol/kg TIW, female mice
Experimental: METHOD: Additional In vivo antitumor method. Four to six week-old female nu/nu mice (Charles River, Wilmington, Mass.) were maintained on a standard 12 h light-dark cycle and fed ad libitum with folate-deficient chow (Harlan diet #TD00434, Harlan Teklad, Madison, Wis.) for the duration of the experiment. KB cells (1×10^6 per nu/nu mouse) in 100 μL were injected in the subcutis of the dorsal medial area. Mice were divided into groups of five, and test articles were freshly prepared and injected through the lateral tail vein under sterile conditions in a volume of 200 μL of phosphate-buffered saline (PBS). Intravenous (i.v.) treatments were typically initiated on approximately 9 post-tumor cell implantation when the KB tumors were approximately 100-200 mm^3 in volume. The mice in the control groups received no treatment. Growth of each s.c. tumor was followed by measuring the tumor three times per week during treatment and twice per week thereafter until a volume of 1500 mm^3 was reached. Tumors were measured in two perpendicular directions using Vernier calipers, and their volumes were calculated as 0.5×L×W^2, where L=measurement of longest axis in mm and W=measurement of axis perpendicular to L in mm. As a general measure of toxicity, changes in body weights were determined on the same schedule as tumor volume measurements. Survival of animals was monitored daily. Animals that were moribund (or unable to reach food or water) were euthanized by CO2 asphyxiation. All in vivo studies were performed in accordance with the American Accreditation Association of Laboratory Animal Care guidelines.
METHOD: Toxicity as Measured by Weight Loss. The percentage weight change of the mice was determined in mice (5 mice/group) on selected days post-tumor inoculation (PTI), and graphed.

[4] = tested on: folate receptor-positive KB cells; experiment: Inhibition of Cellular DNA Synthesis (3H-thymidine incorporation cytotoxicity assay); format: cell-based; settings: 2 hour pulse and 72 hour chase
Experimental: METHOD: Inhibition of Cellular DNA Synthesis. The compounds described herein were evaluated using an in vitro cytotoxicity assay that predicts the ability of the drug to inhibit the growth of folate receptor-positive KB cells. The compounds were comprised of folate linked to a respective chemotherapeutic drug, as prepared according to the protocols described herein. The KB cells were exposed for up to 7 h at 37° C. to the indicated concentrations of folate-drug conjugate in the absence or presence of at least a 100-fold excess of folic acid. The cells were then rinsed once with fresh culture medium and incubated in fresh culture medium for 72 hours at 37° C. Cell viability was assessed using a ^3H-thymidine incorporation assay. For compounds described herein, dose-dependent cytotoxicity was generally measurable, and in most cases, the IC50 values (concentration of drug conjugate required to reduce ^3H-thymidine incorporation into newly synthesized DNA by 50%) were in the low nanomolar range.
METHOD: In vitro test against the various cancer cell lines. Cells are heavily seeded in 24-well Falcon plates and allowed to form nearly confluent monolayers overnight. Thirty minutes prior to the addition of the test compound, spent medium is aspirated from all wells and replaced with fresh folate-deficient RPMI medium (FFRPMI). A subset of wells are designated to receive media containing 100 μM folic acid. The cells in the designated wells are used to determine the targeting specificity. […] Following one rinse with 1 mL of fresh FFRPMI containing 10% heat-inactivated fetal calf serum, each well receives 1 mL of medium containing increasing concentrations of test compound (4 wells per sample) in the presence or absence of 100 μM free folic acid as indicated. Treated cells are pulsed for 2 h at 37° C., rinsed 4 times with 0.5 mL of media, and then chased in 1 mL of fresh medium up to 70 h. Spent medium is aspirated from all wells and replaced with fresh medium containing 5 μCi/mL ^3H-thymidine. Following a further 2 h 37° C. incubation, cells are washed 3 times with 0.5 mL of PBS and then treated with 0.5 mL of ice-cold 5% trichloroacetic acid per well. After 15 min, the trichloroacetic acid is aspirated and the cell material solubilized by the addition of 0.5 mL of 0.25 N sodium hydroxide for 15 min. A 450 μL aliquot of each solubilized sample is transferred to a scintillation vial containing 3 mL of Ecolume scintillation cocktail and then counted in a liquid scintillation counter. Final tabulated results are expressed as the percentage of ^3H-thymidine incorporation relative to untreated controls.

subcutaneous KB tumors = experiment: KB tumor assay, inhibition of tumor growth in mice; format: in vivo, nu/nu mice; settings: FIG. 3A; 0.5, 0.75, 1 μmol/kg; tolerable and highly toxic dose levels
Experimental: METHOD: Inhibition of Tumor Growth in Mice. Four to seven week-old mice (Balb/c or nu/nu strains) were purchased from Harlan Sprague Dawley, Inc. (Indianapolis, Ind.). Normal rodent chow contains a high concentration of folic acid (6 mg/kg chow); accordingly, mice used were maintained on the folate-free diet (Harlan diet #TD00434) for 1 week before tumor implantation to achieve serum folate concentrations close to the range of normal human serum. For tumor cell inoculation, 1×10^6 M109 cells (Balb/c strain) or 1×10^6 KB cells (nu/nu strain) in 100 μL were injected in the subcutis of the dorsal medial area. Tumors were measured in two perpendicular directions every 2-3 days using a caliper, and their volumes were calculated as 0.5×L×W^2, where L=measurement of longest axis in mm and W=measurement of axis perpendicular to L in mm. […]
METHOD: General KB Tumor Assay. The anti-tumor activity of the compounds described herein, when administered intravenously (i.v.) to tumor-bearing animals, was evaluated in nu/nu mice bearing subcutaneous KB tumors. […] Tumor growth was measured using calipers at 2-day or 3-day intervals in each treatment group. Tumor volumes were calculated using the equation V=a×b^2/2, where “a” is the length of the tumor and “b” is the width expressed in millimeters.
METHOD: Additional In vivo antitumor method. […] Survival of animals was monitored daily. […]

CCCC(=O)OCN(C(=O)[C@@H](NC(=O)[C@H]1CCCCN1C)C(C)CC)[C@H](C[C@@H](OC(C)=O)c1nc(C(=O)N[C@@H](Cc2ccc(O)cc2)C[C@H](C)C(=O)NNC(=O)OCCSSC[C@H](NC(=O)[C@H](CC(=O)O)NC(=O)[C@H](CCCNC(=N)N)NC(=O)[C@H](CC(=O)O)NC(=O)CC[C@H](NC(=O)c2ccc(NCc3cnc4nc(N)[nH]c(=O)c4n3)cc2)C(=O)O)C(=O)O)cs1)C(C)C (stereo partly drawn) [EC0305]
fraction unbound [1]: 0.207
fraction unbound [2]: 0.362
tolerability (percent weight change) [3]: not well tolerated; also recorded: exceeded MTD

CCC(C)[C@H](NC(=O)[C@H]1CCCCN1C)C(=O)N(COC(=O)CC(C)C)[C@H](C[C@@H](OC(C)=O)c1nc(C(=O)N[C@@H](Cc2ccc(O)cc2)C[C@H](C)C(=O)NNC(=O)OCCSSC[C@H](NC(=O)[C@H](CC(=O)O)NC(=O)[C@H](CCCNC(=N)N)NC(=O)[C@H](CC(=O)O)NC(=O)CC[C@H](NC(=O)c2ccc(NCc3cnc4nc(N)[nH]c(=O)c4n3)cc2)C(=O)O)C(=O)O)cs1)C(C)C (stereo partly drawn) [EC0510]
tolerability (percent weight change) [3]: exceeded MTD
tolerability (percent weight change) ([3]; listed as EC0310): not well tolerated

CCCC(=O)OCN(C(=O)[C@@H](NC(=O)[C@H]1CCCCN1C)C(C)CC)[C@H](C[C@@H](OC(C)=O)c1nc(C(=O)N[C@@H](Cc2ccc(O)cc2)C[C@H](C)C(=O)NNC(=O)OCCSSC[C@H](NC(=O)[C@H](CCC(=O)NC[C@H](O)[C@@H](O)[C@H](O)[C@H](O)CO)NC(=O)[C@H](CCC(=O)O)NC(=O)[C@H](CCC(=O)NC[C@H](O)[C@@H](O)[C@H](O)[C@H](O)CO)NC(=O)[C@H](CCC(=O)NC[C@H](O)[C@@H](O)[C@H](O)[C@H](O)CO)NC(=O)[C@H](CCC(=O)O)NC(=O)[C@H](CCC(=O)NC[C@H](O)[C@@H](O)[C@H](O)[C@H](O)CO)NC(=O)CC[C@H](NC(=O)c2ccc(NCc3cnc4nc(N)[nH]c(=O)c4n3)cc2)C(=O)O)C(=O)O)cs1)C(C)C (stereo partly drawn) [EC0530]
cytotoxic activity in the presence of an excess of a folate-fluorescein conjugate [4]: blocked

CCCC(=O)OCN(C(=O)[C@@H](NC(=O)[C@H]1CCCCN1C)C(C)CC)[C@H](C[C@@H](OC(C)=O)c1nc(C(=O)N[C@@H](Cc2ccc(O)cc2)C[C@H](C)C(=O)NNC(=O)OCCSSC[C@H](NC(=O)[C@H](CCC(=O)NC[C@H](O)[C@@H](O)[C@H](O)[C@H](O)CO)NC(=O)[C@H](CCC(=O)O)NC(=O)[C@H](CCC(=O)NC[C@H](O)[C@@H](O)[C@H](O)[C@H](O)CO)NC(=O)[C@H](CCC(=O)O)NC(=O)[C@H](CCC(=O)NC[C@H](O)[C@@H](O)[C@H](O)[C@H](O)CO)NC(=O)CC[C@H](NC(=O)c2ccc(NCc3cnc4nc(N)[nH]c(=O)c4n3)cc2)C(=O)O)C(=O)O)cs1)C(C)C (stereo partly drawn) [EC0531]
cytotoxic activity in the presence of an excess of a folate-fluorescein conjugate [4]: blocked
cytotoxic activity in the presence of an excess of folic acid [4]: blocked
fraction unbound [1]: 0.38
amount of free conjugate in serum compared to EC0305 ([1]; serum binding assay): two times
fraction unbound [2]: 0.503
weight loss or major organ tissue degeneration ([3]; FIG. 4B, 1, 2, 3 μmol/kg TIW two weeks): apparent absence of weight loss or major organ tissue degeneration
tolerability (percent weight change) [3]: well tolerated; also recorded: safe and tolerable

CCC(C)[C@H](NC(=O)[C@H]1CCCCN1C)C(=O)N(COC(=O)CC(C)C)[C@H](C[C@@H](OC(C)=O)c1nc(C(=O)N[C@@H](Cc2ccc(O)cc2)C[C@H](C)C(=O)NNC(=O)OCCSSC[C@H](NC(=O)[C@H](CCC(=O)NC[C@H](O)[C@@H](O)[C@H](O)[C@H](O)CO)NC(=O)[C@H](CCC(=O)O)NC(=O)[C@H](CCC(=O)NC[C@H](O)[C@@H](O)[C@H](O)[C@H](O)CO)NC(=O)[C@H](CCC(=O)NC[C@H](O)[C@@H](O)[C@H](O)[C@H](O)CO)NC(=O)[C@H](CCC(=O)O)NC(=O)[C@H](CCC(=O)NC[C@H](O)[C@@H](O)[C@H](O)[C@H](O)CO)NC(=O)CC[C@H](NC(=O)c2ccc(NCc3cnc4nc(N)[nH]c(=O)c4n3)cc2)C(=O)O)C(=O)O)cs1)C(C)C (stereo partly drawn) [EC0533]
cytotoxic activity in the presence of an excess of a folate-fluorescein conjugate [4]: blocked

CCC(C)[C@H](NC(=O)[C@H]1CCCCN1C)C(=O)N(COC(=O)CC(C)C)[C@H](C[C@@H](OC(C)=O)c1nc(C(=O)N[C@@H](Cc2ccc(O)cc2)C[C@H](C)C(=O)NNC(=O)OCCSSC[C@H](NC(=O)[C@H](CCC(=O)NC[C@H](O)[C@@H](O)[C@H](O)[C@H](O)CO)NC(=O)[C@H](CCC(=O)O)NC(=O)[C@H](CCC(=O)NC[C@H](O)[C@@H](O)[C@H](O)[C@H](O)CO)NC(=O)[C@H](CCC(=O)O)NC(=O)[C@H](CCC(=O)NC[C@H](O)[C@@H](O)[C@H](O)[C@H](O)CO)NC(=O)CC[C@H](NC(=O)c2ccc(NCc3cnc4nc(N)[nH]c(=O)c4n3)cc2)C(=O)O)C(=O)O)cs1)C(C)C (stereo partly drawn) [EC0543]
cytotoxic activity in the presence of an excess of a folate-fluorescein conjugate [4]: blocked
observed weight loss ([3]; FIG. 9, 3 μmol/kg, nu/nu mice with KB tumors): 15 to 18%

CCCC(=O)OCN(C(=O)[C@@H](NC(=O)[C@H]1CCCCN1C)C(C)CC)[C@H](C[C@@H](OC(C)=O)c1nc(C(=O)N[C@@H](Cc2ccc(O)cc2)C[C@H](C)C(=O)O)cs1)C(C)C (stereo partly drawn) [tubulysin B, reference compound]
responses (animals) (subcutaneous KB tumors): 0/5
toxicity (percent body weight change) ([3]; mouse, in vivo): excessive toxicity
